Assay results published in patent publication US20250340630A1 (SICHUAN KELUN BIOTECH BIOPHARMACEUTICAL, published 2025).

Legend:
human Claudin18.1 = molecular target: T1, human Claudin18.1 (human, UniProt P56856 1-261); assay: flow cytometry on Ba/F3-Claudin18.1 cells
T1 construct: whole, on cells; Presented on transfected cells; also called CLDN18.1
Procedure: (§1) The affinity of the candidates to Claudin18.2 was measured using FACS. […] Ba/F3-Claudin18.1 and Ba/F3-Claudin18.2 cells were incubated with the purified mouse antibodies at various concentrations on ice for 30 min and mouse IgG was used as negative control (Thermo Fisher, Cat: 31903), followed by washing with FACS buffer (PBS+2% FBS) twice.

human Claudin18.2 = molecular target: T2, human Claudin18.2 (human, UniProt P56856-2 1-261); assay: flow cytometry on Ba/F3-Claudin18.2 cells, purified mouse antibody
T2 construct: whole, on cells; Four-transmembrane protein, always presented on cells (transfected lines or NUGC-4 with endogenous expression); also called CLDN18.2
Procedure: as §1

B1: mouse antibody 2C6.9 (antibody, V domains shown)
VH: QVQLKESGPGLVAPSQSLSITCTVSGFSLTRYGVSWVRQPPGKGLEWLGVIWGDGNTNFHSFLKSRLSISKDSSKSQVFLKLNSLQTDDTATYYCARVNFGNALDYWGQGTSVTVSS
VL: DIVMTQSPSSLTVTAGEEVTMSCKSSQSLLNSGNQKNYLTWYQQKPGQPPKLLIYWASTRDSGVPDRFTGSGSGTDFTLTISSVQSEDLAVYYCQNDFIFPLTFGAGTKLELK
notes: Purified from hybridoma; also called 2C6.9.2
For B1, the binding result (human Claudin18.1) was “no binding”, the EC50 (human Claudin18.2) was 10.6 nM and the “Max MFI” value (human Claudin18.2) was 6.11e+06 MFI.
